Values of other authors in patent US5654276A, “Peptides and compounds that bind to the IL-5 receptor” (Affymax Technologies N.V., priority 1995, dated 1997).

Target: T1, human IL-5 receptor (Homo sapiens, UniProt Q01344)
T1 construct: host or cells: HL60 subclone induced towards eosinophil differentiation with sodium butyrate (endogenous receptor)
T1 sequence (Q01344 21-420): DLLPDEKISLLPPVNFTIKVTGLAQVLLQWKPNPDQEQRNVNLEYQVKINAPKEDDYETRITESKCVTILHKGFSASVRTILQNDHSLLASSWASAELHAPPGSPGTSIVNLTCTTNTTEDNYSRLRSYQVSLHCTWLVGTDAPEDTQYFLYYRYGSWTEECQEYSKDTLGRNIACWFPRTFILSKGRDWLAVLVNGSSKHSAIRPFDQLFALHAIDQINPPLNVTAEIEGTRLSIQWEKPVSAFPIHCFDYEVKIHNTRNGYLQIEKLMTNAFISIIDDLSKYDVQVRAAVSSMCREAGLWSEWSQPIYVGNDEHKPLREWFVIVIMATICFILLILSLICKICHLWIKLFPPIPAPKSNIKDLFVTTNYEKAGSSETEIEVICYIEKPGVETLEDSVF
T1 sequence (P32927 17-897 partner): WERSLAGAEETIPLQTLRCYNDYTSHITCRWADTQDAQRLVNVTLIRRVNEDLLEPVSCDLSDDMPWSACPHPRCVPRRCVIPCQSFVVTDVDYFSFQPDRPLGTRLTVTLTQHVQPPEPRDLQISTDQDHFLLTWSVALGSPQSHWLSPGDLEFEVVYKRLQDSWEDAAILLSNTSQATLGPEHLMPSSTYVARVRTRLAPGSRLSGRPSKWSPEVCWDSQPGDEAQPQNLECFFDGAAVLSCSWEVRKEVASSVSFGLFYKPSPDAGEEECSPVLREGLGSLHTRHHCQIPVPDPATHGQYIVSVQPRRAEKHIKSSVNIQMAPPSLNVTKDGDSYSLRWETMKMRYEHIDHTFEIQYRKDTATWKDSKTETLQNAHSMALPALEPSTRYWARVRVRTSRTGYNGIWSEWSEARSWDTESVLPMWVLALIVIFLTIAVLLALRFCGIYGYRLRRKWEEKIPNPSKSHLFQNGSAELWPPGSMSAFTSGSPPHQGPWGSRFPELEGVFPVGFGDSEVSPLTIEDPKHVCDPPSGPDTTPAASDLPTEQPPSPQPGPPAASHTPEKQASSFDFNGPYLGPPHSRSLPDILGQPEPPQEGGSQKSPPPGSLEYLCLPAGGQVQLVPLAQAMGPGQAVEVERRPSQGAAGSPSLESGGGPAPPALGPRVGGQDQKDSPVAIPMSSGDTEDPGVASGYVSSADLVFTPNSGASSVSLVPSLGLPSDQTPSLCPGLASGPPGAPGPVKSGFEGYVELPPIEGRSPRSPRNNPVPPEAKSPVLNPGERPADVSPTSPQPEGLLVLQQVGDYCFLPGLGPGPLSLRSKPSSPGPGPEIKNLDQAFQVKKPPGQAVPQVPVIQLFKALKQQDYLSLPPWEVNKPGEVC
Conditions: HL60 subclone, eosinophilic differentiation initiated with sodium butyrate; read-out: Kd of IL-5 binding sites

Kd: 0.03 nM
Substance: IL-5: lymphokine secreted by T cells and mast cells having biological activities on B cells and eosinophils
